# Measurements published in the supplement of paper PMC9112550, “Optimization of the antimicrobial peptide Bac7 by deep mutational scanning” (BMC Biology, 2022).
# System: Escherichia coli TOP10
# Assay: shrunken log2 fold change of peptide-encoding DNA abundance (4.5 h post-induction vs induction); higher = less antimicrobial activity (less host growth inhibition)
# Settings: time post-induction: 4.5 h; library: site-saturation at positions 5, 18, 19, 20
# 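Also: peptides expressed intracellularly from a pBAD plasmid library in pooled LB shake-flask culture, induced with 0.3% L-arabinose, DNA abundance read by NGS, three biological replicates, DESeq2 with apeglm shrinkage.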
row,Sequence,shrunken log2 fold change
1,RRIRRRPPRLPRPRPRPKDQPRP,0.26
2,RRIRRRPPRLPRPRPRPKELPRP,0.166
3,RRIRRRPPRLPRPRPRPKFEPRP,0.0131
4,RRIRRRPPRLPRPRPRPKFVPRP,-0.151
5,RRIRRRPPRLPRPRPRPKGGPRP,0.183
6,RRIRRRPPRLPRPRPRPKGNPRP,0.0579
7,RRIRRRPPRLPRPRPRPKIKPRP,-0.0183
8,RRIRRRPPRLPRPRPRPKIPPRP,0.0427
9,RRIRRRPPRLPRPRPRPKIVPRP,0.0944
10,RRIRRRPPRLPRPRPRPKIYPRP,-0.127
11,RRIRRRPPRLPRPRPRPKLLPRP,0.178
12,RRIRRRPPRLPRPRPRPKMPPRP,0.191
13,RRIRRRPPRLPRPRPRPKNAPRP,0.0423
14,RRIRRRPPRLPRPRPRPKNPPRP,0.124
15,RRIRRRPPRLPRPRPRPKNSPRP,-0.0537
16,RRIRRRPPRLPRPRPRPKNWPRP,0.381
17,RRIRRRPPRLPRPRPRPKPCPRP,0.126
18,RRIRRRPPRLPRPRPRPKPGPRP,0.535
19,RRIRRRPPRLPRPRPRPKPRPRP,0.825
20,RRIRRRPPRLPRPRPRPKSLPRP,0.0308
21,RRIRRRPPRLPRPRPRPKTQPRP,0.273
22,RRIRRRPPRLPRPRPRPKVDPRP,0.0529
23,RRIRRRPPRLPRPRPRPKVYPRP,-0.0919
24,RRIRRRPPRLPRPRPRPKWKPRP,-0.0205
25,RRIRRRPPRLPRPRPRPKWYPRP,0.0824

row,Sequence,shrunken log2 fold change
1,RRIRRRPPRLPRPRPRPKYCPRP,0.0144
2,RRIRRRPPRLPRPRPRPKYQPRP,-0.017
3,RRIRRRPPRLPRPRPRPLAHPRP,0.223
4,RRIRRRPPRLPRPRPRPLDHPRP,-0.357
5,RRIRRRPPRLPRPRPRPLFCPRP,0.24
6,RRIRRRPPRLPRPRPRPLFNPRP,-0.162
7,RRIRRRPPRLPRPRPRPLHHPRP,0.31
8,RRIRRRPPRLPRPRPRPLLLPRP,0.0522
9,RRIRRRPPRLPRPRPRPLMLPRP,-0.108
10,RRIRRRPPRLPRPRPRPLNCPRP,-0.304
11,RRIRRRPPRLPRPRPRPLVKPRP,-0.179
12,RRIRRRPPRLPRPRPRPLWHPRP,1.15
13,RRIRRRPPRLPRPRPRPLWTPRP,0.129
14,RRIRRRPPRLPRPRPRPLYNPRP,-0.295
15,RRIRRRPPRLPRPRPRPLYVPRP,-0.379
16,RRIRRRPPRLPRPRPRPMAMPRP,-0.011
17,RRIRRRPPRLPRPRPRPMCKPRP,0.141
18,RRIRRRPPRLPRPRPRPMEFPRP,0.0274
19,RRIRRRPPRLPRPRPRPMFMPRP,-0.192
20,RRIRRRPPRLPRPRPRPMHGPRP,0.144
21,RRIRRRPPRLPRPRPRPMHPPRP,0.552
22,RRIRRRPPRLPRPRPRPMHRPRP,0.0514
23,RRIRRRPPRLPRPRPRPMHVPRP,0.281
24,RRIRRRPPRLPRPRPRPMICPRP,-0.0373
25,RRIRRRPPRLPRPRPRPMIDPRP,-0.1

row,Sequence,shrunken log2 fold change
1,RRIRRRPPRLPRPRPRPMKNPRP,0.298
2,RRIRRRPPRLPRPRPRPMKQPRP,0.134
3,RRIRRRPPRLPRPRPRPMKTPRP,0.0796
4,RRIRRRPPRLPRPRPRPMLQPRP,-0.274
5,RRIRRRPPRLPRPRPRPMMNPRP,0.00643
6,RRIRRRPPRLPRPRPRPMPLPRP,2.47
7,RRIRRRPPRLPRPRPRPMRPPRP,0.66
8,RRIRRRPPRLPRPRPRPMSDPRP,-0.00309
9,RRIRRRPPRLPRPRPRPMSKPRP,0.404
10,RRIRRRPPRLPRPRPRPMSLPRP,-0.0564
11,RRIRRRPPRLPRPRPRPMTLPRP,-0.142
12,RRIRRRPPRLPRPRPRPMVRPRP,0.276
13,RRIRRRPPRLPRPRPRPMYYPRP,-0.232
14,RRIRRRPPRLPRPRPRPNACPRP,-0.00291
15,RRIRRRPPRLPRPRPRPNASPRP,-0.0114
16,RRIRRRPPRLPRPRPRPNEHPRP,-0.118
17,RRIRRRPPRLPRPRPRPNENPRP,0.256
18,RRIRRRPPRLPRPRPRPNESPRP,0.137
19,RRIRRRPPRLPRPRPRPNHIPRP,-0.502
20,RRIRRRPPRLPRPRPRPNHRPRP,-0.0368
21,RRIRRRPPRLPRPRPRPNHWPRP,0.0169
22,RRIRRRPPRLPRPRPRPNIPPRP,-0.24
23,RRIRRRPPRLPRPRPRPNITPRP,-0.128
24,RRIRRRPPRLPRPRPRPNIVPRP,-0.171
25,RRIRRRPPRLPRPRPRPNKNPRP,0.153

row,Sequence,shrunken log2 fold change
1,RRIRRRPPRLPRPRPRPNKTPRP,-0.00203
2,RRIRRRPPRLPRPRPRPNKVPRP,-0.213
3,RRIRRRPPRLPRPRPRPNLAPRP,0.176
4,RRIRRRPPRLPRPRPRPNLWPRP,0.552
5,RRIRRRPPRLPRPRPRPNMNPRP,-0.463
6,RRIRRRPPRLPRPRPRPNNEPRP,-0.246
7,RRIRRRPPRLPRPRPRPNNNPRP,-0.426
8,RRIRRRPPRLPRPRPRPNRFPRP,0.156
9,RRIRRRPPRLPRPRPRPNSGPRP,0.279
10,RRIRRRPPRLPRPRPRPNTDPRP,-0.106
11,RRIRRRPPRLPRPRPRPNWNPRP,-0.115
12,RRIRRRPPRLPRPRPRPNWWPRP,1.05
13,RRIRRRPPRLPRPRPRPNYCPRP,-0.25
14,RRIRRRPPRLPRPRPRPNYFPRP,-0.323
15,RRIRRRPPRLPRPRPRPNYSPRP,-0.0871
16,RRIRRRPPRLPRPRPRPPAKPRP,1.35
17,RRIRRRPPRLPRPRPRPPDKPRP,0.303
18,RRIRRRPPRLPRPRPRPPECPRP,0.222
19,RRIRRRPPRLPRPRPRPPGPPRP,0.8
20,RRIRRRPPRLPRPRPRPPIGPRP,-0.149
21,RRIRRRPPRLPRPRPRPPIQPRP,0.16
22,RRIRRRPPRLPRPRPRPPKDPRP,0.472
23,RRIRRRPPRLPRPRPRPPLNPRP,0.696
24,RRIRRRPPRLPRPRPRPPMNPRP,0.172
25,RRIRRRPPRLPRPRPRPPNGPRP,0.407

row,Sequence,shrunken log2 fold change
1,RRIRRRPPRLPRPRPRPPNMPRP,0.402
2,RRIRRRPPRLPRPRPRPPNYPRP,0.0616
3,RRIRRRPPRLPRPRPRPPPMPRP,0.959
4,RRIRRRPPRLPRPRPRPPQQPRP,0.951
5,RRIRRRPPRLPRPRPRPPSCPRP,0.301
6,RRIRRRPPRLPRPRPRPPSIPRP,-0.212
7,RRIRRRPPRLPRPRPRPPSRPRP,0.446
8,RRIRRRPPRLPRPRPRPPTFPRP,0.0767
9,RRIRRRPPRLPRPRPRPPVAPRP,0.769
10,RRIRRRPPRLPRPRPRPPVEPRP,0.593
11,RRIRRRPPRLPRPRPRPPVGPRP,0.366
12,RRIRRRPPRLPRPRPRPPVKPRP,0.369
13,RRIRRRPPRLPRPRPRPPVNPRP,0.282
14,RRIRRRPPRLPRPRPRPPVPPRP,0.753
15,RRIRRRPPRLPRPRPRPPVRPRP,0.437
16,RRIRRRPPRLPRPRPRPPWHPRP,0.516
17,RRIRRRPPRLPRPRPRPPYHPRP,0.124
18,RRIRRRPPRLPRPRPRPPYIPRP,0.141
19,RRIRRRPPRLPRPRPRPPYLPRP,0.0685
20,RRIRRRPPRLPRPRPRPPYNPRP,-0.019
21,RRIRRRPPRLPRPRPRPPYRPRP,0.113
22,RRIRRRPPRLPRPRPRPQAFPRP,0.0653
23,RRIRRRPPRLPRPRPRPQAHPRP,0.544
24,RRIRRRPPRLPRPRPRPQANPRP,0.118
25,RRIRRRPPRLPRPRPRPQARPRP,0.246

row,Sequence,shrunken log2 fold change
1,RRIRRRPPRLPRPRPRPQCAPRP,0.647
2,RRIRRRPPRLPRPRPRPQCWPRP,0.557
3,RRIRRRPPRLPRPRPRPQEMPRP,0.51
4,RRIRRRPPRLPRPRPRPQFMPRP,-0.139
5,RRIRRRPPRLPRPRPRPQGSPRP,0.0234
6,RRIRRRPPRLPRPRPRPQGYPRP,-0.0842
7,RRIRRRPPRLPRPRPRPQHDPRP,0.478
8,RRIRRRPPRLPRPRPRPQHMPRP,-0.296
9,RRIRRRPPRLPRPRPRPQIFPRP,-0.0198
10,RRIRRRPPRLPRPRPRPQILPRP,0.0332
11,RRIRRRPPRLPRPRPRPQLPPRP,0.283
12,RRIRRRPPRLPRPRPRPQLQPRP,0.413
13,RRIRRRPPRLPRPRPRPQNVPRP,0.0718
14,RRIRRRPPRLPRPRPRPQSGPRP,0.121
15,RRIRRRPPRLPRPRPRPQTTPRP,0.137
16,RRIRRRPPRLPRPRPRPQVKPRP,0.132
17,RRIRRRPPRLPRPRPRPQWEPRP,-0.0504
18,RRIRRRPPRLPRPRPRPQYHPRP,-0.145
19,RRIRRRPPRLPRPRPRPRACPRP,0.352
20,RRIRRRPPRLPRPRPRPRAGPRP,0.638
21,RRIRRRPPRLPRPRPRPRCAPRP,0.469
22,RRIRRRPPRLPRPRPRPRDDPRP,0.14
23,RRIRRRPPRLPRPRPRPRDHPRP,0.397
24,RRIRRRPPRLPRPRPRPREGPRP,1.33
25,RRIRRRPPRLPRPRPRPREPPRP,1.04
